Test system: Escherichia coli TOP10
Assay: shrunken log2 fold change of peptide-encoding DNA abundance (4.5 h post-induction vs induction); higher = less antimicrobial activity (less host growth inhibition)
Settings: time post-induction: 4.5 h; library: site-saturation at positions 5, 18, 19, 20
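Also: peptides expressed intracellularly from a pBAD plasmid library in pooled LB shake-flask culture, induced with 0.3% L-arabinose, DNA abundance read by NGS, three biological replicates, DESeq2 with apeglm shrinkage.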

RRIRHRPPRLPRPRPRPQKHPRP
shrunken log2 fold change: -0.992

RRIRHRPPRLPRPRPRPQMEPRP
shrunken log2 fold change: -0.00192

RRIRHRPPRLPRPRPRPQNCPRP
shrunken log2 fold change: 0.0145

RRIRHRPPRLPRPRPRPQQRPRP
shrunken log2 fold change: 0.403

RRIRHRPPRLPRPRPRPQRDPRP
shrunken log2 fold change: 0.000147

RRIRHRPPRLPRPRPRPQRKPRP
shrunken log2 fold change: -0.191

RRIRHRPPRLPRPRPRPQRLPRP
shrunken log2 fold change: 0.00653

RRIRHRPPRLPRPRPRPQSAPRP
shrunken log2 fold change: -0.116

RRIRHRPPRLPRPRPRPQVCPRP
shrunken log2 fold change: -0.0115

RRIRHRPPRLPRPRPRPQVWPRP
shrunken log2 fold change: -0.112

RRIRHRPPRLPRPRPRPQWAPRP
shrunken log2 fold change: -0.018

RRIRHRPPRLPRPRPRPQWGPRP
shrunken log2 fold change: -0.149

RRIRHRPPRLPRPRPRPQWIPRP
shrunken log2 fold change: -0.031

RRIRHRPPRLPRPRPRPQWMPRP
shrunken log2 fold change: 0.0263

RRIRHRPPRLPRPRPRPQWYPRP
shrunken log2 fold change: -0.0605

RRIRHRPPRLPRPRPRPQYLPRP
shrunken log2 fold change: 0.00943

RRIRHRPPRLPRPRPRPRCQPRP
shrunken log2 fold change: 0.219

RRIRHRPPRLPRPRPRPRCVPRP
shrunken log2 fold change: 0.548

RRIRHRPPRLPRPRPRPRDCPRP
shrunken log2 fold change: -0.0851

RRIRHRPPRLPRPRPRPRDHPRP
shrunken log2 fold change: 0.175

RRIRHRPPRLPRPRPRPRFNPRP
shrunken log2 fold change: -0.316

RRIRHRPPRLPRPRPRPRGGPRP
shrunken log2 fold change: 0.504

RRIRHRPPRLPRPRPRPRGMPRP
shrunken log2 fold change: 0.207

RRIRHRPPRLPRPRPRPRHCPRP
shrunken log2 fold change: 0.03

RRIRHRPPRLPRPRPRPRHMPRP
shrunken log2 fold change: -0.0251

RRIRHRPPRLPRPRPRPRIIPRP
shrunken log2 fold change: -1.44

RRIRHRPPRLPRPRPRPRLLPRP
shrunken log2 fold change: -0.113

RRIRHRPPRLPRPRPRPRLMPRP
shrunken log2 fold change: 0.121

RRIRHRPPRLPRPRPRPRLTPRP
shrunken log2 fold change: -0.176

RRIRHRPPRLPRPRPRPRNNPRP
shrunken log2 fold change: -0.493

RRIRHRPPRLPRPRPRPRNQPRP
shrunken log2 fold change: 0.0527

RRIRHRPPRLPRPRPRPRPGPRP
shrunken log2 fold change: 0.324

RRIRHRPPRLPRPRPRPRPKPRP
shrunken log2 fold change: -0.0808

RRIRHRPPRLPRPRPRPRQSPRP
shrunken log2 fold change: 0.144

RRIRHRPPRLPRPRPRPRRIPRP
shrunken log2 fold change: 0.0543

RRIRHRPPRLPRPRPRPRSMPRP
shrunken log2 fold change: -0.241

RRIRHRPPRLPRPRPRPRTHPRP
shrunken log2 fold change: -0.137

RRIRHRPPRLPRPRPRPRVHPRP
shrunken log2 fold change: 0.0785

RRIRHRPPRLPRPRPRPRVMPRP
shrunken log2 fold change: 0.0966

RRIRHRPPRLPRPRPRPRYKPRP
shrunken log2 fold change: -0.424

RRIRHRPPRLPRPRPRPRYTPRP
shrunken log2 fold change: -0.123

RRIRHRPPRLPRPRPRPSCCPRP
shrunken log2 fold change: -0.343

RRIRHRPPRLPRPRPRPSDTPRP
shrunken log2 fold change: -1.05

RRIRHRPPRLPRPRPRPSEFPRP
shrunken log2 fold change: -0.477

RRIRHRPPRLPRPRPRPSESPRP
shrunken log2 fold change: -0.232

RRIRHRPPRLPRPRPRPSFKPRP
shrunken log2 fold change: -0.6

RRIRHRPPRLPRPRPRPSFNPRP
shrunken log2 fold change: -0.583

RRIRHRPPRLPRPRPRPSGEPRP
shrunken log2 fold change: -0.03

RRIRHRPPRLPRPRPRPSGMPRP
shrunken log2 fold change: 0.0613

RRIRHRPPRLPRPRPRPSHMPRP
shrunken log2 fold change: -0.856

RRIRHRPPRLPRPRPRPSHWPRP
shrunken log2 fold change: -0.288

RRIRHRPPRLPRPRPRPSINPRP
shrunken log2 fold change: -0.605

RRIRHRPPRLPRPRPRPSMLPRP
shrunken log2 fold change: -0.539

RRIRHRPPRLPRPRPRPSPNPRP
shrunken log2 fold change: -0.302

RRIRHRPPRLPRPRPRPSQQPRP
shrunken log2 fold change: -0.031

RRIRHRPPRLPRPRPRPSQRPRP
shrunken log2 fold change: -0.102

RRIRHRPPRLPRPRPRPSQSPRP
shrunken log2 fold change: -0.22

RRIRHRPPRLPRPRPRPSRIPRP
shrunken log2 fold change: 0.111

RRIRHRPPRLPRPRPRPSTLPRP
shrunken log2 fold change: -0.0931

RRIRHRPPRLPRPRPRPSVDPRP
shrunken log2 fold change: 0.0776

— the supplement of paper PMC9112550, “Optimization of the antimicrobial peptide Bac7 by deep mutational scanning” (BMC Biology, 2022)
